Results: patent US20030013150

B1: recombinant-K2S (r-K2S) expressed in non-gpIII fusion form in E. coli XM[K2S] (protein)
chain: SEGNSDCYFGNGSAYRGTHSLTESGASCLPWNSMILIGKVYTAQNPSAQALGLGKHNYCRNPDGDAKPWCHVLKNRRLTWEYCDVPSCSTCGLRQYSQPQFRIKGGLFADIASHPWQAAIFAKHRRSPGERFLCGGILISSCWILSAAHCFQERFPPHHLTVILGRTYRVVPGEEEQKFEVEKYIVHKEFDDDTYDNDIALLQLKSDSSRCAQESSVVRTVCLPPADLQLPDWTECELSGYGKHEALSPFYSERLKEAHVRLYPSSRCTSQHLLNRTVTDNMLCAGDTRSGGPQANLHDACQGDSGGPLVCLNDGRMTLVGIISWGLGCGQKDVPGVYTKVTNYLDWIRDNMRP
B2: standard melanoma tPA 86/670 (protein)
chain: SYQVICRDEKTQMIYQQHQSWLRPVLRSNRVEYCWCNSGRAQCHSVPVKSCSEPRCFNGGTCQQALYFSDFVCQCPEGFAGKCCEIDTRATCYEDQGISYRGTWSTAESGAECTNWNSSALAQKPYSGRRPDAIRLGLGNHNYCRNPDRDSKPWCYVFKAGKYSSEFCSTPACSEGNSDCYFGNGSAYRGTHSLTESGASCLPWNSMILIGKVYTAQNPSAQALGLGKHNYCRNPDGDAKPWCHVLKNRRLTWEYCDVPSCSTCGLRQYSQPQFRIKGGLFADIASHPWQAAIFAKHRRSPGERFLCGGILISSCWILSAAHCFQERFPPHHLTVILGRTYRVVPGEEEQKFEVEKYIVHKEFDDDTYDNDIALLQLKSDSSRCAQESSVVRTVCLPPADLQLPDWTECELSGYGKHEALSPFYSERLKEAHVRLYPSSRCTSQHLLNRTVTDNMLCAGDTRSGGPQANLHDACQGDSGGPLVCLNDGRMTLVGIISWGLGCGQKDVPGVYTKVTNYLDWIRDNMRP

Target: plasminogen
Sequence (P00747 20-810): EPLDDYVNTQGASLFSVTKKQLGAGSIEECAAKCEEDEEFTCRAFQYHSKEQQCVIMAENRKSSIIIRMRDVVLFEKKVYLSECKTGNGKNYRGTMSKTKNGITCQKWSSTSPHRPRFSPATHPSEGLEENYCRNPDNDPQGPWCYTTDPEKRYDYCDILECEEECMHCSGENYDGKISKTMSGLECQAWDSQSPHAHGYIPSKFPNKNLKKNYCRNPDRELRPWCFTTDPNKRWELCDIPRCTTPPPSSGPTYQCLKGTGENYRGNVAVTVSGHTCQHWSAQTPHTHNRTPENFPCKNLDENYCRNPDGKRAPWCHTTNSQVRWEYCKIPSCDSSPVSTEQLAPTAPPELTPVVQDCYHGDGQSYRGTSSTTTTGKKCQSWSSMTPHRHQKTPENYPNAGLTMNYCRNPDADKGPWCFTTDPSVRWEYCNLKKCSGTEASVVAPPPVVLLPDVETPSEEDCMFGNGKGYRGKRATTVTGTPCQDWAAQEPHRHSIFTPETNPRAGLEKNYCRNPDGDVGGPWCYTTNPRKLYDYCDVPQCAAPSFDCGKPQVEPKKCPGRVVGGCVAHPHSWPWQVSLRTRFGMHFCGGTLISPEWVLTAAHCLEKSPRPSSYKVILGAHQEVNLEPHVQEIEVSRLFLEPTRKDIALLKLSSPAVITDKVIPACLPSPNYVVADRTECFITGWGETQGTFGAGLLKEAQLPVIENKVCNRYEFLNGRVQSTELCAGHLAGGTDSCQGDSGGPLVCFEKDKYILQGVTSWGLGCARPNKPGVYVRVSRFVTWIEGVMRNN

Protein	copolymerized plasminogen polyacrylamide gel electrophoresis (clearing zones)	fibrinogen-dependent enzymatic activity (amidolytic assay, plasminogen and S-2251)	fibrinogen-dependent enzymatic activity of the periplasmic r-K2S preparation (amidolytic assay, plasminogen and S-2251)
B1	Transparent areas of serine protease digested plasminogen were observed only in the ammonium sulfate precipitated culture supernatants of E. coli XM[K2S] at 34 and 37 kDa postions	The culture supernatant r-K2S gave the fibrinogen-dependent enzymatic activity of 7 IU/ml	notably low enzymatic activity, which was below the sensitivity of the test (0.25 IU/ml)
B2	The positive control lane of standard melanoma tPA also demonstrated enzymatic activity at 66 and 72 kDa positions		
